According to paper PMC9674830 (2022):
Positions of bridges follow the written chain, without caps; N, C: chain ends. Non-standard residues stand in square brackets, D forms with d. No end group written: not given here. pentenylalanine = pentenylalanine, unnatural amino acid di-substituted at Cα, crosslinked by ring-closing metathesis

B1: C-terminal domain of subunit 1 of the general transcription regulator TFIIF (RAP74-CTD) (domain or fragment)
chain: GDVQVTEDAVRRYLTRKPMTTKDLLKKFQTKKTGLSSEQTVNVLAQILKRLNPERKMINDKMHFSLKE

Target: B1
Experiment: ITC

How did the Kd turn out when KKPGASLAALQELQLLQLLQELQAAQAAKKY (designed binder) [peptide δ] was run?
Its Kd is 256 µM.

Target: γCtrl
Experiment: NMR

How did the Kd turn out when B1 was run?
The Kd was > 1000 µM.

Target: B1
Experiment: NMR

How did the Kd turn out when KKPGASLSWLQLFQEEQAAQAAKK (designed binder) [peptide γ] was run?
Its Kd is 626 µM.

How did the Kd turn out when KKPGASAAAAQE[pentenylalanine]QLA[pentenylalanine]LAQELQAAQAAKKY (staple 13-17) [peptide δ_(Stpl)] was run?
The Kd was > 1000 µM.

Which Kd does the source give for KKPGASLAALQALQALQAAQAAKKY [peptide (P3-7)2] here?
The Kd was > 1000 µM.

Which Kd does the source give for KKPGASASW[pentenylalanine]QLF[pentenylalanine]EEQAAQAAKK (staple 10-14) [peptide γ_(Stpl)] here?
The Kd was 202 µM.

With KKPGASAAAAQEAQLAQLAQELQAAQAAKKY [peptide δ_(ctrl)] as the binder, how does the Kd read?
Its Kd is > 1000 µM.

KKPGASLAALQALQALQALQALQAAQAAKKY [peptide (P3-7)3] was tested. Which Kd did it give?
Its Kd is > 1000 µM.

With SAAASSSWHTLFTAEEGQLYG [AR-WHTLF peptide] as the binder, how does the Kd read?
The Kd was > 1000 µM.
